{"source": "patent US20250355001A1", "about": "“METHOD FOR DETECTING A TAU PROTEIN FRAGMENT IN A SAMPLE” (GTINVENT LIMITED, priority 2022, published 2025)", "molecules": {"B1": {"name": "S1D12: sheep-derived anti-tau core clone; scFv SEQ ID NO: 32, VH 443, VL 444 (protein)", "scFv": "QVQLQESGPSLVKPSQTLSLTCTVSGFSLNNNAVGWVRQAPGKVPESLVGCSSDGTCYYNSALKSRLDITRDTSKNQISLSLSSVTTDDAAVYYCTRGHYSIYGYDYLGTIDYWGPGLLVTVSSEGKSSGASGESKVDDQAVLTQPSSVSGSLGQRVSITCSGSSSNVGGGNSVGWYQHLPGSGLKTIIYDTNSRPSGVPDRFSGSRSGNTATLTINSLQAEDEGDYYCVTGDSTTHDDLVGSGTRLTVLG", "modifications": "S1D12 amino acid sequence"}, "B2": {"name": "S1G2: sheep-derived anti-tau core clone; scFv SEQ ID NO: 81, VH 455, VL 456 (protein)", "scFv": "QVQLQESGPSLVKPSQTLSLTCTVSGFSLTSNSVGWVRQAPGKAPEWVAGIDTDGEEGYNPALNSRLSITRDTSKSQVSLSLSSVTSEDTAVYYCGRSYRADGLAYGYVQAIDYWGPGLLVTVSSEGKSSGASGESKVDDQAVVTQPSSVSGSLGQRVSITCSGSFIGISSVGWFQQLPGSGLRTIIVASDGRPSGVPDRFSMSKSGNTATLTISSLQAEDEADYFCGSSDRTPYTGVFGSGTRLTVLG", "modifications": "S1G2 amino acid sequence"}, "B3": {"name": "CE2: anti-tau core clone, Table 10; SEQ ID NO: 366 (protein)", "scFv": "QVQLQESGPSLVKPSQTLSLTCTVSGFSLTNYPVGWVRQAPGKALEWIGNIENDGSANYASALKSRLSITRDTSKNQVSLSLSSATTEDTAVYYCGREFGGSDGYTYFVDIDYWGPGLLVTVSSEGKSSGASGESKVDDQAVLTQPSSVSKSLGQSVSITCSGSSSNVGYGNYVSWFQQVPGSAPKILIYGATSRASGVPDRFSGSRSGNTATLTITSLQAEDEADYYCASYDGSSSGVFGSGTRLTVLG", "modifications": "CE2/E1B8 amino acid sequence"}}, "key": {"[1]": {"tested_on": "hT40, dGA, dGAE and truncated tau fragments", "test": "Binding ELISA / epitope mapping of anti-tau scAbs with truncated tau proteins and 13mer peptides", "design": "species or system human", "conditions": "for Tau proteins/fragments with positive scAb reactivity: binding ELISA; for binding region on hT40: amino acid residues of hT40; for Binding region hT40: second Table 26, own antibodies", "method_in_brief": "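Serially double-diluted scAbs were applied to 2% MPBS-blocked wells carrying either 1 μg/ml full-length or truncated tau, or biotinylated 13mer peptides (1 μg/ml) captured on 5 μg/ml streptavidin. Absorbance after HRP anti-human C kappa secondary gave the binding signal.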"}, "[2]": {"molecular_target": "T1, hT40 (T441, SEQ ID NO: 1) (Homo sapiens, UniProt P10636)", "T1 construct": "Full length tau (hT40)", "T1 sequence (P10636 1-441 isoform P10636-8)": "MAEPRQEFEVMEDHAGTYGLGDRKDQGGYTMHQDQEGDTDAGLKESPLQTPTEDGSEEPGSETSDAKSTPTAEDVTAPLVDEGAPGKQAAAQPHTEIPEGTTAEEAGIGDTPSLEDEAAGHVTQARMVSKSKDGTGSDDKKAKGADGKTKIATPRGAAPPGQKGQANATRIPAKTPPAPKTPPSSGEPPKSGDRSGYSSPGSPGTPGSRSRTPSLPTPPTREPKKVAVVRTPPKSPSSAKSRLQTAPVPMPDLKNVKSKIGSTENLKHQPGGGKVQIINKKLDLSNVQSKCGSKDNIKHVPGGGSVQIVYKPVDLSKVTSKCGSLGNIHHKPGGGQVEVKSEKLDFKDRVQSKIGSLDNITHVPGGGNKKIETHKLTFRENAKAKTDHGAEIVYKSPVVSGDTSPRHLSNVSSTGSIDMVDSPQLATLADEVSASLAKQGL", "test": "Biacore X100 SPR kinetics of scAbs for hT40", "type": "binding", "conditions": "Table 23; scAb captured, T441 (hT40) analyte; 1:1 model", "method_in_brief": "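Captured scAb on anti-HuCk CM5 surface (flow cell 1 as reference) in HBS-EP+, capture set for theoretical RMax 100 RU; hT40 injected multi-cycle (0.15625–100 nM) or single-cycle (6.25–100 nM), 120 s association, 420 s dissociation, glycine pH 2.0 regeneration. Kinetics and affinity from 1:1 binding model fit.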"}, "[3]": {"molecular_target": "T2, htau40 (Homo sapiens, UniProt P10636)", "T2 construct": "Full length tau (hT40)", "T2 sequence (P10636 1-441 isoform P10636-8)": "as above", "test": "Biacore X100 SPR kinetics of anti-tau mAbs on immobilised htau40", "type": "binding", "method_in_brief": "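Htau40 amine-coupled to CM5 chip (~250 RU, pH 4.0 immobilisation), reference flow cell subtracted; mAb injected at 0.78–25 nM in HBS-EP+, 120 s association, 600 s dissociation, glycine pH 1.5 regeneration. Kinetic and affinity constants from 1:1 binding model fit.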"}, "[4]": {"conditions": "Table 16, NS, S and M clones, incl. 13mer peptides"}, "[5]": {"conditions": "Table 26 summary, top scAbs, residues of hT40"}, "[6]": {"conditions": "residue numbers of SEQ ID NO: 1 (hT40), CDR Tables 1-11"}, "[7]": {"conditions": "Table 27, mAb format, immobilised htau40"}, "[8]": {"conditions": "Table 15, residue numbers of hT40"}, "[9]": {"conditions": "second Table 25, newly converted mAbs, hT40"}}}
{"molecule": "B1", "values": [{"measurement": "Tau proteins/fragments with positive scAb reactivity", "setting": "[1]; Table 16, NS, S and M clones", "value": "hT40, 297-390 (dGA), 297-391 (dGAE), 186-350, 266-359, 337-368"}, {"measurement": "Shortest region bound on hT40", "setting": "[1]; [4]", "value": "337-355"}, {"measurement": "Epitope", "setting": "[1]; [5]", "value": "337-349"}, {"measurement": "binding region on hT40", "setting": "[1]", "value": "337-355"}, {"measurement": "Epitope", "setting": "[1]; [6]", "value": "337-355"}, {"measurement": "Binding region hT40", "setting": "[1]", "value": "(Binding region hT40 337-355)"}, {"measurement": "ka", "setting": "[2]", "value": "1.252e+06", "unit": "M⁻¹ s⁻¹"}, {"measurement": "kd", "setting": "[2]", "value": 0.00015, "unit": "s⁻¹"}, {"measurement": "ka", "setting": "[3]; [7]", "value": 405800, "unit": "M⁻¹ s⁻¹"}, {"measurement": "kd", "setting": "[3]; [7]", "value": "4.093e-05", "unit": "s⁻¹"}, {"measurement": "Kd", "setting": "[3]; as quoted in Example 32, read-out: affinity", "value": 0.12, "unit": "nM"}]}
{"molecule": "B2", "values": [{"measurement": "Tau proteins/fragments with positive scAb reactivity", "setting": "[1]; Table 16, NS, S and M clones", "value": "hT40, 297-390 (dGA), 297-391 (dGAE), 369-390, 369-391"}, {"measurement": "Shortest region bound on hT40", "setting": "[1]; [4]", "value": "367-379"}, {"measurement": "Epitope", "setting": "[1]; [5]", "value": "367-379"}, {"measurement": "Detection scAb (Epitope)", "setting": "[1]; Table 28 (LoD table), residues of hT40", "value": "S1G2 (367-379)"}, {"measurement": "binding region on hT40", "setting": "[1]", "value": "367-379"}, {"measurement": "Binding region hT40", "setting": "[1]", "value": "(Binding region hT40 367-379)"}, {"measurement": "ka", "setting": "[2]", "value": "1.057e+06", "unit": "M⁻¹ s⁻¹"}, {"measurement": "kd", "setting": "[2]", "value": 0.00018, "unit": "s⁻¹"}, {"measurement": "ka", "setting": "[3]; [7]", "value": 339800, "unit": "M⁻¹ s⁻¹"}, {"measurement": "kd", "setting": "[3]; [7]", "value": "4.748e-05", "unit": "s⁻¹"}]}
{"molecule": "B3", "values": [{"measurement": "cross-reactivity using hT40, dGA and dGAE antigens", "setting": "[1]; ELISA, 'E' group scAbs", "value": "cross-reacts with dGA"}, {"measurement": "Tau proteins/fragments with positive scAb reactivity", "setting": "[1]; [8]", "value": "297-390 (dGA), 297-391 (dGAE), 313-336"}, {"measurement": "Shortest region bound on hT40", "setting": "[1]; [8]", "value": "313-336"}, {"measurement": "Tau proteins/fragments with positive scAb reactivity", "setting": "[1]; Table 17, 'C' group scAbs", "value": "hT40, 266-359 (R1-3)"}, {"measurement": "Shortest region bound on hT40", "setting": "[1]; Table 17, 'C' group scAbs, incl. 13mer peptides", "value": "319-331"}, {"measurement": "Epitope", "setting": "[1]; [5]", "value": "319-331"}, {"measurement": "Epitope", "setting": "[1]; Table 26 summary, top scAbs, residues of hT40, listed as E1B8", "value": "316-336"}, {"measurement": "binding region on hT40", "setting": "[1]; listed as E1B8 scAb", "value": "313-336"}, {"measurement": "Epitope", "setting": "[1]; [6]", "value": "319-331"}, {"measurement": "hT40 binding region", "setting": "[1]; second Table 25, mAb format", "value": "319-331"}, {"measurement": "ka", "setting": "[2]", "value": 213700, "unit": "M⁻¹ s⁻¹"}, {"measurement": "kd", "setting": "[2]", "value": 0.001077, "unit": "s⁻¹"}, {"measurement": "ka", "setting": "[3]; [7]", "value": 457900, "unit": "M⁻¹ s⁻¹"}, {"measurement": "kd", "setting": "[3]; [7]", "value": 0.005218, "unit": "s⁻¹"}, {"measurement": "ka", "setting": "[3]; [9]", "value": 323800, "unit": "M⁻¹ s⁻¹"}, {"measurement": "kd", "setting": "[3]; [9]", "value": 0.001367, "unit": "s⁻¹"}]}
